B1: Putative E3 ubiquitin-protein ligase UNKL (Homo sapiens), Q9H9P5 (parent)
chain: MPSVSKAAAAALSGSPPQTEKPTHYRYLKEFRTEQCPLFSQHKCAQHRPFTCFHWHFLNQRRRRPLRRRDGTFNYSPDVYCSKYNEATGVCPDGDECPYLHRTTGDTERKYHLRYYKTGTCIHETDARGHCVKNGLHCAFAHGPLDLRPPVCDVRELQAQEALQNGQLGGGEGVPDLQPGVLASQAMIEKILSEDPRWQDANFVLGSYKTEQCPKPPRLCRQGYACPHYHNSRDRRRNPRRFQYRSTPCPSVKHGDEWGEPSRCDGGDGCQYCHSRTEQQFHPESTKCNDMRQTGYCPRGPFCAFAHVEKSLGMVNEWGCHDLHLTSPSSTGSGQPGNAKRRDSPAEGGPRGSEQDSKQNHLAVFAAVHPPAPSVSSSVASSLASSAGSGSSSPTALPAPPARALPLGPASSTVEAVLGSALDLHLSNVNIASLEKDLEEQDGHDLGAAGPRSLAGSAPVAIPGSLPRAPSLHSPSSASTSPLGSLSQPLPGPVGSSAMTPPQQPPPLRSEPGTLGSAASSYSPLGLNGVPGSIWDFVSGSFSPSPSPILSAGPPSSSSASPNGAELARVRRQLDEAKRKIRQWEESWQQVKQVCDAWQREAQEAKERARVADSDRQLALQKKEEVEAQVIFQLRAKQCVACRERAHGAVLRPCQHHILCEPCAATAPECPYCKGQPLQW

Variants of: B1
Settings: with ubi4p_yeast UBI4, P0CG63
ubi4p_yeast UBI4, P0CG63, sequence (P0CG63 whole entry): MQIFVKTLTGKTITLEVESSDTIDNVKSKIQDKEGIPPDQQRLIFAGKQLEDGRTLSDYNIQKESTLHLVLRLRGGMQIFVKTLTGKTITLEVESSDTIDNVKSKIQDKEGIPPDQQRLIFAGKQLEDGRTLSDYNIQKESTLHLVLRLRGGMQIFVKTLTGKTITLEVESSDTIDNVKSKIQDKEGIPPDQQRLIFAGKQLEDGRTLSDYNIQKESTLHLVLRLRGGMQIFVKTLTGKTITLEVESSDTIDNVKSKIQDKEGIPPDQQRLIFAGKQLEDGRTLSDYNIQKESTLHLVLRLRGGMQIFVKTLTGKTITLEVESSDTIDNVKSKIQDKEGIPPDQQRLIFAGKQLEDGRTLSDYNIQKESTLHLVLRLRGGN

**Q.** With C639A as the variant, how does the “effect of a mutation on the interaction” value read?
**A.** decreasing interaction

**Q.** For C670A, which “effect of a mutation on the interaction” value is on record?
**A.** decreasing interaction

— IntAct's records for PubMed 20148946
